In US20190022241A1 (AbbVie / Abbott, published 2019):

Key:
human SEZ6L ECD-His = biological target: T1, human SEZ6L ECD-His (human, UniProt Q9BYH1 29-955); test: ELISA on plates coated with SEZ6L protein
T1 construct: whole entry named
T1 sequence: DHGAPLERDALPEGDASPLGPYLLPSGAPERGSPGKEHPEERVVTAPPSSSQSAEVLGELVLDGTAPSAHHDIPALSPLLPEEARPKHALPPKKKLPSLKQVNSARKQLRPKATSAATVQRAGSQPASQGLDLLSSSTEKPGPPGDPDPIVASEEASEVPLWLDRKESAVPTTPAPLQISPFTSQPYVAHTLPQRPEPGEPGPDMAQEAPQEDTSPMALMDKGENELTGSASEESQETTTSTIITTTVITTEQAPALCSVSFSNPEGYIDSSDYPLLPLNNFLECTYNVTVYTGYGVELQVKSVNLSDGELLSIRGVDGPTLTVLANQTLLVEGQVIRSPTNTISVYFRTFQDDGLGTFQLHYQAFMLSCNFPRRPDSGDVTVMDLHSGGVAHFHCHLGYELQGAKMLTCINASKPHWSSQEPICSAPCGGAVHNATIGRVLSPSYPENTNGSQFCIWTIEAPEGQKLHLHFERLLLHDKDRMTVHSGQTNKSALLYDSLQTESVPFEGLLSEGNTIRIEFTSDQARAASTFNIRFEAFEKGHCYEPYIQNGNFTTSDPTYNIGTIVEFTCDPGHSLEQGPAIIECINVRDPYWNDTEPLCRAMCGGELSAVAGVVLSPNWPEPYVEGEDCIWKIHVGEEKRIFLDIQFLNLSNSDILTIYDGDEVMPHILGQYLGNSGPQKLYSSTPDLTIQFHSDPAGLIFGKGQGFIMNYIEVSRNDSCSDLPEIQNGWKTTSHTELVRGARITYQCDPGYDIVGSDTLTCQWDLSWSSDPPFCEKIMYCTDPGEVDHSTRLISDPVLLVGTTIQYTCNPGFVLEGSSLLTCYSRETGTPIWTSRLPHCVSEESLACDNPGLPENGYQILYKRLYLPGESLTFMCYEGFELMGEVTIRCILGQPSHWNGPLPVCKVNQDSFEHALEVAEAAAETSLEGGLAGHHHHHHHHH

[1] = biological target: T2, rat SEZ6 on RIN-m5F cells (rat, UniProt Q7TSK2 20-991 (mouse entry)); test: flow cytometry on RIN-m5F cells expressing rat SEZ6, verified by BLI or SPR on rat SEZ6-His
T2 construct: endogenous on RIN-m5F cells; also called rSEZ6
T2 chain: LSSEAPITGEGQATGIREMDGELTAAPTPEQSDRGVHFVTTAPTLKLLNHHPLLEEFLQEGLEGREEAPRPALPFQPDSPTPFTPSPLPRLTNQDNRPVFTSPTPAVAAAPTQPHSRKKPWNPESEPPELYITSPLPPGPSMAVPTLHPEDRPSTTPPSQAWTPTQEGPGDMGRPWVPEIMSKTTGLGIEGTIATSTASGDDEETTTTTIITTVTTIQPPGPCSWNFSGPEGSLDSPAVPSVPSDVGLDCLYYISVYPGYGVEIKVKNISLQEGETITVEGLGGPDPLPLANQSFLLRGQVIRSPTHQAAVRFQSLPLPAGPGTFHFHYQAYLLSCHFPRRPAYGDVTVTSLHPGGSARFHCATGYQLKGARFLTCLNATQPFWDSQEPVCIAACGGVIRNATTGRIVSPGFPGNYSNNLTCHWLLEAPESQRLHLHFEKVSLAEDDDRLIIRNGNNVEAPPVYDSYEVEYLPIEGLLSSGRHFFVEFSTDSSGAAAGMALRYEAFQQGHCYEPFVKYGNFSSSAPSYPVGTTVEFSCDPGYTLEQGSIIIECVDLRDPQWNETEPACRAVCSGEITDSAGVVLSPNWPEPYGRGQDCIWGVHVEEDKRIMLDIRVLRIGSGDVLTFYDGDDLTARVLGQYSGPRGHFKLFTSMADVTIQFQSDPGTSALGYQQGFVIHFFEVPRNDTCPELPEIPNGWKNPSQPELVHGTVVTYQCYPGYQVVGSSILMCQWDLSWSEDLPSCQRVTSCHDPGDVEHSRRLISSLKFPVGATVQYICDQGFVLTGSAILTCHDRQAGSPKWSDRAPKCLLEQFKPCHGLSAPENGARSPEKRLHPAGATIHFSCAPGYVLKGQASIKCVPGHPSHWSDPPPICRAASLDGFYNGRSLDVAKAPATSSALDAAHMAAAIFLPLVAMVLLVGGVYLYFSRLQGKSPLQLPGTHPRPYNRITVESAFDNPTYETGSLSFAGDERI
Protocol: (§1) Briefly 1×10⁵ cells per well of Neuro2a, RIN-5mF, or yeast displaying cynomolgus SEZ6 cells were incubated for 30 minutes with 50 μL PBS (2% FCS) buffer with 5 μg/mL antibody. […] After incubating for 15 minutes cells were washed twice with the PBS buffer and re-suspended in the same with DAPI for flow cytometry analysis of Neuro2a and Rin-m5F or buffer without DAPI for flow cytometric analysis of yeast cells with cSEZ6.
To verify the cross reactivity data above for rat SEZ6 and to determine the affinity and kinetic constants kₒₙ and koff of the selected effectors, either bio-layer interferometry analysis on a ForteBio RED (ForteBio, Inc.) or surface plasmon resonance on a Biacore 2000 (GE Healthcare) were conducted.

hSEZ6-ECD-His [2] = biological target: T3, hSEZ6-ECD-His (human, UniProt Q53EL9 20-925); test: bio-layer interferometry (ForteBio RED) or surface plasmon resonance (Biacore 2000) on human SEZ6-His; the table does not say which; column Hu Affinity (Kd, nM)
T3 construct: the whole entry is named; also called recombinant SEZ6-His; human recombinant SEZ6-His
Description: Various methods were used to analyze the binding and immunochemical characteristics of selected SEZ6 modulators generated as set forth above.

human SEZ6L2 ECD-His = biological target: T4, human SEZ6L2 ECD-His (human, UniProt Q6UXD5 28-843); test: ELISA on plates coated with SEZ6L2 protein
T4 construct: whole entry named
T4 sequence (Q6UXD5 other isoform, or with tags, fused parts or gaps): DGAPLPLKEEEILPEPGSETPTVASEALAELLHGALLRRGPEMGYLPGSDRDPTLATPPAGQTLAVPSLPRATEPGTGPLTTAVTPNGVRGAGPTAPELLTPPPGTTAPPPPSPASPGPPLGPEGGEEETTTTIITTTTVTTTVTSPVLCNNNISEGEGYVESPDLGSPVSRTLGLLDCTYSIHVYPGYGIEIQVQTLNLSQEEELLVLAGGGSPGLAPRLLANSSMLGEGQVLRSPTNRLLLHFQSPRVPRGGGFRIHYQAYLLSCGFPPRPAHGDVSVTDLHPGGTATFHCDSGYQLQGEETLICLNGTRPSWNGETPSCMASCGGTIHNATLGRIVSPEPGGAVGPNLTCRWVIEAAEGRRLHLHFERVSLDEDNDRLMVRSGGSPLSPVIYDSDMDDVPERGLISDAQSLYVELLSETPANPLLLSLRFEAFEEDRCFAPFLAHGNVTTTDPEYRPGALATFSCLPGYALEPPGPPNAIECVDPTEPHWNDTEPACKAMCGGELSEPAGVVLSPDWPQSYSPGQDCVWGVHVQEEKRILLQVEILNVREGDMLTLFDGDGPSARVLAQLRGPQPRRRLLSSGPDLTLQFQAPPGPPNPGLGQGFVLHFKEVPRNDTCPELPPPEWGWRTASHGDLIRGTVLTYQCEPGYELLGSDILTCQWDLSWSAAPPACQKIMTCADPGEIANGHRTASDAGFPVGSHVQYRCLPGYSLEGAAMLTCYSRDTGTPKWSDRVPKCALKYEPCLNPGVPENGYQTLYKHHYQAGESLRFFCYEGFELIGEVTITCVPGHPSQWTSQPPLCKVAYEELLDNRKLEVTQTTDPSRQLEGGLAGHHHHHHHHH
Protocol: To determine cross reactivity to family member proteins, SEZ6L and SEZ6L2, an ELISA-based assay was used. Plates were coated with SEZ6, SEZ6L, or SEZ6L2 proteins at 0.2 μg/mL in PBS overnight. After washing with PBS containing 0.05% (v/v) Tween 20 (PB ST), the wells were blocked with 2% (w/v) BSA in PBS (PB SA), 100 μL/well for 1 hour at room temperature. Antibody was then added at 1 μg/mL in 100 μL PBSA for 1 hour at room temperature. After washing with PBST, 100 μL/well HRP-labeled goat anti-mouse IgG diluted 1:2,000 in PBSA for 1 hour at room temperature. […] After developing, an equal volume of 2M H₂SO₄ was added to stop substrate development and analyzed by spectrophotometer at OD 450.

[3] = biological target: T5, mouse SEZ6 on Neuro2a cells (mouse, UniProt Q7TSK2 20-991); test: flow cytometry on Neuro2a cells expressing mouse SEZ6
T5 construct: endogenous on Neuro2a cells; also called murine SEZ6; mSEZ6
Protocol: as §1

[4] = biological target: T6, extracellular domain of cynomolgus SEZ6 on yeast (cynomolgus, UniProt Q53EL9 23-925 (human entry)); test: flow cytometry, yeast displaying cynomolgus SEZ6 ECD, 5 ug/mL antibody
T6 construct: yeast display; the whole entry is named; also called cSEZ6; cynomolgus SEZ6 ECD
T6 chain: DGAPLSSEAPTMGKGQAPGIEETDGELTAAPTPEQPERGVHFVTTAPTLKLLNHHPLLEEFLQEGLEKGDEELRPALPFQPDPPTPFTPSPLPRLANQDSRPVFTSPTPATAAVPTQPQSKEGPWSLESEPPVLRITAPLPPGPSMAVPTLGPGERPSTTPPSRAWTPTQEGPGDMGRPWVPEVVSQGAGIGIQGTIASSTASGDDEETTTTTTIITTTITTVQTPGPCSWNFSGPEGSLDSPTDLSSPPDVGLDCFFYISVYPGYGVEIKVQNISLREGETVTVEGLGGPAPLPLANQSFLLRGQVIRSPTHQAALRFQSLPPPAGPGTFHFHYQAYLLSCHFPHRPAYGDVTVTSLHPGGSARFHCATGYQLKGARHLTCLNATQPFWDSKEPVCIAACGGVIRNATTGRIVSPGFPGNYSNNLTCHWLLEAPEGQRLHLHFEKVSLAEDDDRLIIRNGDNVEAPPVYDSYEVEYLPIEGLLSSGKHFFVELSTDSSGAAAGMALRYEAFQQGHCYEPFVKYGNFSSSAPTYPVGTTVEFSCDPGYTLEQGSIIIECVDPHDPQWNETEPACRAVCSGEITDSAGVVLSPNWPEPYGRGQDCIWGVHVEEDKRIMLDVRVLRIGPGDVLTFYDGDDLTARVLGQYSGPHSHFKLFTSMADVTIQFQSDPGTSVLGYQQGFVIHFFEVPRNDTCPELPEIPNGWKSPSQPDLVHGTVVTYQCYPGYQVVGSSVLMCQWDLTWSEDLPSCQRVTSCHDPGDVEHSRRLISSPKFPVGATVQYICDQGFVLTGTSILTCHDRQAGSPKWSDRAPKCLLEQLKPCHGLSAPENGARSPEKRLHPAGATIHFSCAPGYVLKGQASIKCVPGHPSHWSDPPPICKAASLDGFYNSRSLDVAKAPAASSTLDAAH
Protocol: as §1

hSEZ6-ECD-His [5] = biological target: T3, hSEZ6-ECD-His; test: SPR, Biacore 2000 (data not shown)

B1: SC17.36 (antibody, V domains shown)
VH: EVQLQESGPSLVKPSQSQSLTCSVTGDSITSDYWNWIRKFPGKKVEYMGYINYSGSTYYNPSLKSRISITRDTSKNQYYLQLNSVTSEDTATYYCARTSYYNKFLPFAYWGQGTLVTVSA
VL: QIVLTQSPALMSASPGEKVTMTCSASSSVSYMYWYQQKPRSSPKPWIYLTSNLASGVPARFSGSGSGTSYSLTISSMEAEDAATYYCQQWSSNPPTFGGGTKLEIK
notes: murine mAb
Human SEZ6L ECD-His
  binding result: no binding (tested: 1 µg/mL)
[1]
  binding result: no binding (tested: 5 µg/mL)
hSEZ6-ECD-His [2]
  Kd: 6.3 nM
Human SEZ6L2 ECD-His
  binding result: no binding (tested: 1 µg/mL)
[3]
  binding result: no binding (tested: 5 µg/mL)
[4]
  binding result: binds

B2: hSC17.16 (antibody, human IgG1, V domains shown)
VH: QVQLVQSGAEVKKPGASVKVSCKASGYTFTDYNMYWVRQAPGQGLEWMGEINPNNGGTAYNQKFRGKVTMTRDTSISTAYMELSRLRSDDTAVYYCARYDKGFDYWGQGTTVTVSS
VL: DIQMTQSPSSLSASVGDRVTITCRASANINSNLVWYQQKPGKAPKLLIYAATNLADGVPSRFSGSGSGTDFTLTISSLQPEDFATYYCQHFWGTPRTFGGGTKLEIK
notes: humanized; human IgG1 heavy and human kappa light constant regions
hSEZ6-ECD-His [5]
  binding result: binds

B3: hSC17.17 (antibody, human IgG1, V domains shown)
VH: QVQLVQSGAEVKKPGASVKVSCKASGYTFTDYNMHWVRQAPGQGLEWMGEINPNIGGTGYNQKFKGRVTMTRDTSISTAYMELSRLRSDDTAVYYCARTYSYYSYEFAYWGQGTLVTVSS
VL: EIVLTQSPATLSLSPGERATLSCSASSSVSYMHWYQQKPGQAPRLLIYDTSKLPSGIPARFSGSGSGTDFTLTISSLEPEDFAVYYCQQWSSTPPTFGQGTKLEIK
notes: humanized, human IgG1/kappa
hSEZ6-ECD-His [5]
  binding result: binds

B4: hSC17.28 (antibody, human IgG1, V domains shown)
VH: QVQLVQSGAEVKKPGASVKVSCKASGYTFTRSYIHWVRQAPGQGLEWMGYISSGSGGTTYNQKFKGRVTSTRDTSISTAYMELSRLRSDDTAVYYCARGGVRYFDVWGQGTTVTVSS
VL: EIVLTQSPDFQSVTPKEKVTITCRASQSIGTSIHWYQQKPDQSPKLLIKYASESISGVPSRFSGSGSGTDFTLTINSLEAEDAATYYCQQSNSWPLTFGQGTKLEIK
notes: humanized, human IgG1/kappa
hSEZ6-ECD-His [5]
  binding result: binds

B5: hSC17.34 (antibody, human IgG1, V domains shown)
VH: QVQLVQSGAEVKKPGASVKVSCKASGYTFTDYNMDWVRQAPGQRLEWIGYIYPDNGGAGYNQKFKGRVTITVDTSASTAYMELSSLRSEDTAVYYCSRSITTAWFAYWGQGTLVTVSS
VL: DIQMTQSPSSLSASVGDRVTITCKASQDINSYLSWFQQKPGKAPKSLIYRANRLVDGVPSRFSGSGSGTDYTLTISSLQPEDFATYYCLQYDEFPPTFGQGTKLEIK
notes: humanized, human IgG1/kappa
hSEZ6-ECD-His [5]
  binding result: binds

B6: hSC17.46 (antibody, human IgG1, V domains shown)
VH: QVQLVQSGAEVKKPGASVKVSCKASGYTFTSYWINWVRQAPGQGLEWIGNIFPDTTTTNYNEKFKGRVTLTRDTSISTAYMELSRLRSDDTAVYYCAREYYDGTYDAMDYWGQGTLVTVSS
VL: AIQMTQSPSSLSASVGDRVTITCKASQSVNNDVAWYQQKPGKAPKLLIYYASNRYTGVPSRFSGSGSGTDFTLTISSLQPEDFATYFCQQDYSSPRTFGQGTKLEIK
notes: humanized, human IgG1/kappa
hSEZ6-ECD-His [5]
  binding result: binds
